# Results: the supplement of paper PMC9732359
# ± gives the uncertainty stated by the source.
# Experiment: protein stability index of a GFP-peptide fusion (yeast GPS) (PSI 1-4); higher = more stable; sorted into four equal gates, so the index is relative within each strain
# Details: san1∆
# Method in brief: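 For each peptide, the protein stability index sums the read frequency in every gate after multiplying it by the gate number. Read frequencies came from plasmids that were PCR-amplified from each gate and Illumina-sequenced, with reads assigned to strains by barcodes. The gates were four equal bins of GFP/Cherry fluorescence ratio applied to mid-log yeast in leucine-free medium carrying a pooled library of tiled 17-residue yeast protein peptides fused downstream of GFP on a Cherry-expressing plasmid.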
row,Sequence,protein stability index
1,LPSAVDGENDKKEATKP [YLR335W/NUP2],3.05 ± 0.056

# Same assay, conditions: ubr1∆
row,Sequence,protein stability index
1,LFLTAPDSCNMQEKAAH [YCS4],2.92 ± 0.11
2,LFPEQQNKEIKAERVED [RPL6A],3.35 ± 0.056
3,LFPIVKKHGKTDYFLPK [YJL039C/NUP192],2.08 ± 0.062
4,LFPNELYNVMGINKKKL [RPC31],3.5 ± 0.26
5,LFSKNRNEVLESMDFLV [YCS4],2.62 ± 0.052
6,LGDMAVCFNNLVDENTD [YCS4],2.85 ± 0.064
7,LGFTPGELRSYLKGATG [FAS1],3.41 ± 0.17
8,LGIALIALGEDIGKEMS [RPN1],3.02 ± 0.06
9,LGINLVTADTVILFDSD [ISW2],2.94 ± 0.06
10,LGKKGVPYVVTHDGRTI [RPS4A],2.13 ± 0.054
11,LGLKFDDLIAEENPIMQ [QCR7],1.81 ± 0.079
12,LGNDIPHDLIIGTADIF [BRR2],2.86 ± 0.047
13,LGNVDAFQLADGIHYIL [PRP8],1.91 ± 0.042
14,LGPLSYQNMAFITAKDK [YJR042W/NUP85],2.31 ± 0.058
15,LGYARFILLDRLRQFNL [SMC4],1.63 ± 0.061
16,LGYPPISLVDDIINAVN [MTW1],1.94 ± 0.069
17,LHANGASFFFMVMFMHM [COB],1.38 ± 0.036
18,LHVLPTLNSRALSGLYY [SNM1],2.31 ± 0.042
19,LHYIPKYNRYEKRHKNV [RPS11A],2.26 ± 0.05
20,LIAIVSKLLQTTLKLSP [NUT1],1.21 ± 0.066
21,LIEKVDDTAANNGDKDH [YIL149C/MLP2],3.09 ± 0.065
22,LIESLNTIRQNVTSSGD [YML103C/NUP188],1.21 ± 0.081
23,LIGRPPLLVPGMTPCTV [FAS1],2.15 ± 0.06
24,LIIQYPPNNARRTYNTL [ISW2],2.33 ± 0.031
25,LIPCKYLNRHADFFVRE [RPN7],2.81 ± 0.11
26,LISGAGANPRVLSTFTA [RPN10],2.17 ± 0.072

row,Sequence,protein stability index
1,LISIHSRENNSEYMVFG [YJL039C/NUP192],3.15 ± 0.19
2,LISSSLSNLSKDIKANL [YCS4],2.35 ± 0.067
3,LISSSQDMQLKIWSVKD [RPN14],2.59 ± 0.1
4,LITSSARKELPIFDYIH [SIR3],2.48 ± 0.048
5,LIYHLKDCAEVDSRTKI [IRR1],3.23 ± 0.092
6,LKAQITSLKCLVNRKPI [SNF2],1.61 ± 0.032
7,LKDFNTERVVEIGPSPT [FAS2],2.716 ± 0.014
8,LKENNAILQKSLKNVTE [YIL149C/MLP2],2.75 ± 0.044
9,LKEVLYNDSATSGEAAA [RPN2],1.28 ± 0.056
10,LKEVPTYRYVSVSVLVD [RPS25A],1.66 ± 0.038
11,LKEYQSKIIVFPRDGKA [RPL13B],3.17 ± 0.054
12,LKEYQSKIIVFPRNGKA [RPL13A],3 ± 0.076
13,LKIYAQIEKKEIKKMII [YCG1],3.01 ± 0.07
14,LKIYYKEEFSSDESIER [RRI2],2.9 ± 0.11
15,LKLENLHVVSKSSIEKD [SIN4],3.12 ± 0.068
16,LKLNTSLPSKLTKYKEM [SRP68],1.95 ± 0.053
17,LKLSMADYNGALLRVTK [POP4],2.52 ± 0.053
18,LKNYVLNELHPTLPTNH [PRP8],2.67 ± 0.031
19,LKPKLYYEQFRPDLIKE [SIR3],3.33 ± 0.045
20,LKRSTELLETVSLTKRK [YIL149C/MLP2],1.6 ± 0.027
21,LKSLNDIETQLCSMLQE [MED11],3 ± 0.059
22,LKSLYSFFNISPDAPKE [SIN4],1.84 ± 0.049
23,LKTVLHNGRDKIQFHIH [RGR1],1.39 ± 0.048
24,LKYHDFLRKATAFNKTR [RPL16B],3.08 ± 0.036
25,LKYYQDLKNTRMKSITS [SNF5],2.98 ± 0.22
26,LLDAGCKVVAEMIRGRS [SKP1],1.91 ± 0.1

row,Sequence,protein stability index
1,LLDAYSHIESDSTSHNN [MED1],2.89 ± 0.038
2,LLEGLNEKIEKRSDLTG [UBP6],3.32 ± 0.098
3,LLESYKTLSLKSMASAF [RPN7],1.12 ± 0.033
4,LLFEDLFKKFNNDFKLS [RET1],2.73 ± 0.13
5,LLGIFDDIFIPQNMLFE [RPC25],2.69 ± 0.1
6,LLGTMAGGAADCQFWET [PRE2],2.65 ± 0.078
7,LLHERKLLNDLALENGE [NUT1],2.84 ± 0.039
8,LLIISCIIFITFEFINI [YML031W/NDC1],1.28 ± 0.029
9,LLISYGVSIENENKVII [SRB4],2.93 ± 0.12
10,LLKDIFANNLKSAISNN [SIR4],2.44 ± 0.037
11,LLKEEKIIELMNKIFTI [YML103C/NUP188],1.79 ± 0.25
12,LLKLERKKTEAVARLKS [SNF2],1.97 ± 0.061
13,LLLAANTHLGARNVQVH [RPS0A],1.13 ± 0.036
14,LLLDNGFNMKKITTSTE [SRP68],2.88 ± 0.1
15,LLLKDQQTAKKLIPKLY [ECM29],1.66 ± 0.053
16,LLLKKLDNFQKSVEKTM [SMC3],2.88 ± 0.17
17,LLLTIQLLIIEKEWENA [SRP72],2.26 ± 0.045
18,LLNDECTESTRENALYD [SNF2],3.69 ± 0.15
19,LLNEYRPHQSRESLIML [MED7],1.98 ± 0.059
20,LLNHGERAELETDEYIS [RPN1],2.66 ± 0.11
21,LLNLPPFQVSSFVKETK [SRB8],2.02 ± 0.04
22,LLPANLLSLNSVRSLQK [SRP68],2.81 ± 0.046
23,LLQEGGSLSGNSSSMEE [ESC2],2.64 ± 0.096
24,LLQKMLNLLNYQELFIQ [YML103C/NUP188],1.52 ± 0.036
25,LLRPSSKVIIKFLQVMQ [RPS22B],1.82 ± 0.058
26,LLRSRLATRRVLQEYRL [RPO21],1.63 ± 0.072

row,Sequence,protein stability index
1,LLTKNVSCYRPRRDGER [RPS6A],3.4 ± 0.096
2,LLVFRNADLDLDEMELH [YDL116W/NUP84],2.73 ± 0.047
3,LLVIGGNQRKILQYSRT [YJR042W/NUP85],1.4 ± 0.072
4,LLVKLSKRLPLRFPEHT [BRR2],2.42 ± 0.062
5,LMETLRTLRRKGDINPE [RPB2],3.16 ± 0.069
6,LMRQALAIKDSKKRFAA [RPO21],1.53 ± 0.049
7,LMTHITTDDEEEPIKKL [RET1],3.49 ± 0.17
8,LNEYKRETLVKTWEKVT [SMC2],2.19 ± 0.039
9,LNFKDDKKYKGLTTVWL [REC8],2.69 ± 0.066
10,LNGILADEMGLGKTIQT [SNF2],2.56 ± 0.095
11,LNHRNKNQHRAASWYGS [RMP1],3.06 ± 0.044
12,LNLDSLLVDQKQLNSLR [SMD1],2.51 ± 0.062
13,LNNLPYKNEDVTALLEQ [YCS4],2.99 ± 0.056
14,LNSNIRAGVTIPSIPNP [SNF5],2.72 ± 0.049
15,LNSNNSIIGNKNNNYTW [REC8],2.41 ± 0.072
16,LNTFHFAGVASKKVTSG [RPO21],2.9 ± 0.077
17,LNVGNVLPLGSVPEGTI [RPL2A],3.28 ± 0.061
18,LNVVMKNLERLRGEYND [SMC4],3.66 ± 0.13
19,LPAPPVCIRPSVMMQDS [RPO31],2.04 ± 0.095
20,LPIESQFVSKLVDNLNA [BRR2],2.4 ± 0.059
21,LPKIIQLQGPQWMNEMV [SOH1],3.06 ± 0.07
22,LPKLNLPKYQTIQYDPP [SNF5],2.11 ± 0.084
23,LPQCIIPSSYIKRTDEG [ARP7],2.49 ± 0.065
24,LPRYQELTKEEAMYKLQ [SMC3],3.04 ± 0.073
25,LPSAVDGENDKKEATKP [YLR335W/NUP2],3.37 ± 0.059
